B1: SNAP91 (parent)
chain: FSTDAFSSPPQGASPVPESSLTAD
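Further: lentivirally expressed fusions sorted by FACS into six bins by GFP to DsRed ratio, PSI derived from sequencing read proportions per bin multiplied by bin number.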

Variants of B1 are the subject of this data set. The data set can be described thus: protein stability index of a GFP-peptide fusion (GPS, HEK-293T) (PSI 1-6); higher = more stable. The note with it: c terminus: a fixed tail appended.
For the variant FSTDAFSSPPQGASPVPESSLKAD [T22K], the protein stability index was 2.64.

Take FSTDAFSSPPQGASPVPESSLDAD [T22D]: the protein stability index was found to be 3.46.

Regarding FSTDAFSSPPQGASPVPESSLLAD [T22L], the protein stability index was determined as 3.63.

As to FSTDAFSSPPQGASPVPESSLCAD [T22C], the protein stability index was 3.3.

Regarding FSTDAFSSPPQGASPVPESSLWAD [T22W], the protein stability index is 2.28.

Consider FSTDAFSSPPQGASPVPESSLHAD [T22H], for which the protein stability index was determined as 3.09.

Take FSTDAFSSPPQGASPVPESSLVAD [T22V]: the protein stability index was determined as 3.41.

Take FSTDAFSSPPQGASPVPESSLQAD [T22Q]: the protein stability index is 3.36.

As for FSTDAFSSPPQGASPVPESSLEAD [T22E], the protein stability index is 3.86.

For FSTDAFSSPPQGASPVPESSLIAD [T22I], the protein stability index is 3.21.

As to FSTDAFSSPPQGASPVPESSLRAD [T22R], the protein stability index came out at 2.93.

With FSTDAFSSPPQGASPVPESSLFAD [T22F], the protein stability index was 2.96.

Consider FSTDAFSSPPQGASPVPESSLMAD [T22M], for which the protein stability index came to 3.31.

For the variant FSTDAFSSPPQGASPVPESSLGAD [T22G], the protein stability index amounted to 3.3.

Turning to FSTDAFSSPPQGASPVPESSLAAD [T22A], the protein stability index was 2.92.

For the variant FSTDAFSSPPQGASPVPESSLPAD [T22P], the protein stability index turned out to be 2.83.

Regarding FSTDAFSSPPQGASPVPESSLNAD [T22N], the protein stability index was found to be 3.09.

For FSTDAFSSPPQGASPVPESSLSAD [T22S], the protein stability index is 3.63.

For FSTDAFSSPPQGASPVPEISLTAD [S19I], the protein stability index worked out at 2.91.

As for FSTDAFSSPPQGASPVPEDSLTAD [S19D], the protein stability index was 3.6.

As to FSTDAFSSPPQGASPVPETSLTAD [S19T], the protein stability index is 3.54.

With FSTDAFSSPPQGASPVPEASLTAD [S19A], the protein stability index is 3.08.

Turning to FSTDAFSSPPQGASPVPERSLTAD [S19R], the protein stability index worked out at 2.55.

For the variant FSTDAFSSPPQGASPVPEWSLTAD [S19W], the protein stability index worked out at 2.76.

As to FSTDAFSSPPQGASPVPENSLTAD [S19N], the protein stability index is 3.44.

As for FSTDAFSSPPQGASPVPEHSLTAD [S19H], the protein stability index came to 3.13.

With FSTDAFSSPPQGASPVPECSLTAD [S19C], the protein stability index was 3.19.

With FSTDAFSSPPQGASPVPEGSLTAD [S19G], the protein stability index stood at 2.46.

For FSTDAFSSPPQGASPVPEPSLTAD [S19P], the protein stability index was 3.09.

With FSTDAFSSPPQGASPVPEKSLTAD [S19K], the protein stability index worked out at 2.23.

Regarding FSTDAFSSPPQGASPVPEESLTAD [S19E], the protein stability index came to 3.19.

As for FSTDAFSSPPQGASPVPELSLTAD [S19L], the protein stability index came out at 2.79.

With FSTDAFSSPPQGASPVPEFSLTAD [S19F], the protein stability index was 2.58.

Turning to FSTDAFSSPPQGASPVPEYSLTAD [S19Y], the protein stability index came out at 3.25.

Regarding FSTDAFSSPPQGASPVPEQSLTAD [S19Q], the protein stability index worked out at 3.1.

In the case of FSTDAFSSPPQGASPVPEMSLTAD [S19M], the protein stability index was 2.66.

As to FSTDAFSSPPQGASPVPEVSLTAD [S19V], the protein stability index came out at 2.85.

Take FSTDAFSSPPQGASPVPISSLTAD [E18I]: the protein stability index is 2.63.

FSTDAFSSPPQGASPVPLSSLTAD [E18L]: the protein stability index was found to be 2.42.

For FSTDAFSSPPQGASPVPNSSLTAD [E18N], the protein stability index came to 2.61.

On to FSTDAFSSPPQGASPVPYSSLTAD [E18Y], for which the protein stability index worked out at 2.74.

Turning to FSTDAFSSPPQGASPVPQSSLTAD [E18Q], the protein stability index turned out to be 3.12.

For FSTDAFSSPPQGASPVPSSSLTAD [E18S], the protein stability index was determined as 3.19.

In the case of FSTDAFSSPPQGASPVPMSSLTAD [E18M], the protein stability index was 2.83.

Consider FSTDAFSSPPQGASPVPRSSLTAD [E18R], for which the protein stability index worked out at 2.65.

Turning to FSTDAFSSPPQGASPVPGSSLTAD [E18G], the protein stability index worked out at 3.05.

As for FSTDAFSSPPQGASPVPKSSLTAD [E18K], the protein stability index was found to be 2.51.

For the variant FSTDAFSSPPQGASPVPWSSLTAD [E18W], the protein stability index came to 2.26.

With FSTDAFSSPPQGASPVPTSSLTAD [E18T], the protein stability index came to 2.81.

Consider FSTDAFSSPPQGASPVPPSSLTAD [E18P], for which the protein stability index is 2.78.

In the case of FSTDAFSSPPQGASPVPVSSLTAD [E18V], the protein stability index is 3.05.

FSTDAFSSPPQGASPVPHSSLTAD [E18H]: the protein stability index is 2.69.

Turning to FSTDAFSSPPQGASPVPASSLTAD [E18A], the protein stability index was determined as 3.22.

In the case of FSTDAFSSPPQGASPVPFSSLTAD [E18F], the protein stability index is 2.45.

With FSTDAFSSPPQGASPVPDSSLTAD [E18D], the protein stability index is 3.15.

For the variant FSTDAFSSPPQGASPVPCSSLTAD [E18C], the protein stability index amounted to 2.43.

Consider FSTDAFSSPPQGASPVPESSGTAD [L21G], for which the protein stability index was found to be 3.14.

For the variant FSTDAFSSPPQGASPVPESSNTAD [L21N], the protein stability index turned out to be 3.39.

On to FSTDAFSSPPQGASPVPESSTTAD [L21T], for which the protein stability index came to 3.45.

For the variant FSTDAFSSPPQGASPVPESSYTAD [L21Y], the protein stability index is 2.81.

With FSTDAFSSPPQGASPVPESSQTAD [L21Q], the protein stability index came to 3.53.

Regarding FSTDAFSSPPQGASPVPESSVTAD [L21V], the protein stability index stood at 3.39.

Take FSTDAFSSPPQGASPVPESSKTAD [L21K]: the protein stability index was found to be 3.12.

As for FSTDAFSSPPQGASPVPESSETAD [L21E], the protein stability index was 4.1.

As to FSTDAFSSPPQGASPVPESSRTAD [L21R], the protein stability index was 3.11.

As for FSTDAFSSPPQGASPVPESSPTAD [L21P], the protein stability index stood at 3.33.

On to FSTDAFSSPPQGASPVPESSATAD [L21A], for which the protein stability index was found to be 3.44.

For the variant FSTDAFSSPPQGASPVPESSITAD [L21I], the protein stability index is 3.01.

On to FSTDAFSSPPQGASPVPESSFTAD [L21F], for which the protein stability index amounted to 3.1.

As for FSTDAFSSPPQGASPVPESSSTAD [L21S], the protein stability index was determined as 3.58.

Regarding FSTDAFSSPPQGASPVPESSMTAD [L21M], the protein stability index was 3.11.

Consider FSTDAFSSPPQGASPVPESSWTAD [L21W], for which the protein stability index turned out to be 2.92.

For FSTDAFSSPPQGASPVPESSDTAD [L21D], the protein stability index was 3.86.

Regarding FSTDAFSSPPQGASPVPESSHTAD [L21H], the protein stability index stood at 3.47.

In the case of FSTDAFSSPPQGASPVPESSCTAD [L21C], the protein stability index came out at 3.38.

In the case of FSTDAFSSPPQGASPVPESILTAD [S20I], the protein stability index came to 2.81.

Turning to FSTDAFSSPPQGASPVPESTLTAD [S20T], the protein stability index was 3.47.

As for FSTDAFSSPPQGASPVPESYLTAD [S20Y], the protein stability index was 2.93.

FSTDAFSSPPQGASPVPESQLTAD [S20Q]: the protein stability index is 3.04.

With FSTDAFSSPPQGASPVPESNLTAD [S20N], the protein stability index came out at 3.38.

Take FSTDAFSSPPQGASPVPESVLTAD [S20V]: the protein stability index came to 2.77.

For the variant FSTDAFSSPPQGASPVPESPLTAD [S20P], the protein stability index amounted to 2.46.

With FSTDAFSSPPQGASPVPESALTAD [S20A], the protein stability index came to 3.56.

Take FSTDAFSSPPQGASPVPESELTAD [S20E]: the protein stability index worked out at 3.49.

FSTDAFSSPPQGASPVPESDLTAD [S20D]: the protein stability index turned out to be 3.48.

With FSTDAFSSPPQGASPVPESLLTAD [S20L], the protein stability index was 2.72.

Regarding FSTDAFSSPPQGASPVPESHLTAD [S20H], the protein stability index stood at 3.04.

As for FSTDAFSSPPQGASPVPESCLTAD [S20C], the protein stability index amounted to 3.18.

Turning to FSTDAFSSPPQGASPVPESMLTAD [S20M], the protein stability index stood at 2.98.

For the variant FSTDAFSSPPQGASPVPESKLTAD [S20K], the protein stability index was 3.09.

On to FSTDAFSSPPQGASPVPESGLTAD [S20G], for which the protein stability index is 3.04.

On to FSTDAFSSPPQGASPVPESWLTAD [S20W], for which the protein stability index turned out to be 2.52.

FSTDAFSSPPQGASPVPESRLTAD [S20R]: the protein stability index was determined as 3.13.

Turning to FSTDAFSSPPQGASPVPESFLTAD [S20F], the protein stability index came out at 2.68.

For the origin of these results see the supplement of paper PMC10567573.
